Source: the supplement of paper PMC5998384

Assays:
[1] = tested on: HeLa Kyoto; assay: thermal stability score vs G1/S (z-score of summed log2 fold changes over temperatures); higher = more thermally stable than in G1/S
[2] = tested on: HeLa Kyoto; assay: solubility in G1/S (NP-40 vs SDS abundance) (log2 ratio); higher = more soluble; details: cell cycle stage: G1/S
[3] = tested on: HeLa Kyoto; assay: solubility change mitosis vs G1/S (difference of NP-40 vs SDS log2 ratios) (log2 ratio difference); higher = more soluble in mitosis
[4] = tested on: HeLa Kyoto; assay: melting temperature (median over replicates), in situ; higher = more thermally stable
[5] = cell cycle stage: early G1 (4.5 h after nocodazole release)
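For melting temperature (median over replicates), in situ in this document: HeLa Kyoto cells synchronized by double thymidine or nocodazole block, proteins quantified by TMT10plex mass spectrometry, three independent biological replicates.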
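For solubility change mitosis vs G1/S (difference of NP-40 vs SDS log2 ratios) in this document: synchronized HeLa Kyoto cells (double thymidine block for G1/S, nocodazole release for mitosis), protein amounts in NP-40 versus SDS lysates quantified by mass spectrometry, three biological replicates.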
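For solubility in G1/S (NP-40 vs SDS abundance) in this document: HeLa Kyoto cells arrested at G1/S by double thymidine block, proteins quantified by TMT10plex mass spectrometry in mild NP-40 versus SDS extracts, three biological replicates.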
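For thermal stability score vs G1/S (z-score of summed log2 fold changes over temperatures) in this document: synchronized HeLa Kyoto cells, proteins quantified by TMT10plex mass spectrometry, three biological replicates, mitosis taken 0.5 h after nocodazole release, G1/S directly after double thymidine block.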

Substance	thermal stability score [1, 5]	thermal stability score ([1]; cell cycle stage: mitosis)	solubility in G1/S (log2) [2]	solubility change mitosis (log2) [3]	melting temperature ([4]; cell cycle stage: G1/S) [°C]	melting temperature ([4]; cell cycle stage: mitosis) [°C]
MTHEEHHAAKTLGIGKAIAVLTSGGDAQGMNAAVRAVVRVGIFTGARVFFVHEGYQGLVDGGDHIKEATWESVSMMLQLGGTVIGSARCKDFREREGRLRAAYNLVKRGITNLCVIGGDGSLTGADTFRSEWSDLLSDLQKAGKITDEEATKSSYLNIVGLVGSIDNDFCGTDMTIGTDSALHRIMEIVDAITTTAQSHQRTFVLEVMGRHCGYLALVTSLSCGADWVFIPECPPDDDWEEHLCRRLSETRTRGSRLNIIIVAEGAIDKNGKPITSEDIKNLVVKRLGYDTRVTVLGHVQRGGTPSAFDRILGSRMGVEAVMALLEGTPDTPACVVSLSGNQAVRLPLMECVQVTKDVTKAMDEKKFDEALKLRGRSFMNNWEVYKLLAHVRPPVSKSGSHTVAVMNVGAPAAGMNAAVRSTVRIGLIQGNRVLVVHDGFEGLAKGQIEEAGWSYVGGWTGQGGSKLGTKRTLPKKSFEQISANITKFNIQGLVIIGGFEAYTGGLELMEGRKQFDELCIPFVVIPATVSNNVPGSDFSVGADTALNTICTTCDRIKQSAAGTKRRVFIIETMGGYCGYLATMAGLAAGADAAYIFEEPFTIRDLQANVEHLVQKMKTTVKRGLVLRNEKCNENYTTDFIFNLYSEEGKGIFDSRKNVLGHMQQGGSPTPFDRNFATKMGAKAMNWMSGKIKESYRNGRIFANTPDSGCVLGMRKRALVFQPVAELKDQTDFEHRIPKEQWWLKLRPILKILAKYEIDLDTSDHAHLEHITRKRSGEAAV [PFKM]	-1.59	-1.13	0.0079	-0.181	59.6	59.7
MSGVRAVRISIESACEKQVHEVGLDGTETYLPPLSMSQNLARLAQRIDFSQGSGSEEEEAAGTEGDAQEWPGAGSSADQDDEEGVVKFQPSLWPWDSVRNNLRSALTEMCVLYDVLSIVRDKKFMTLDPVSQDALPPKQNPQTLQLISKKKSLAGAAQILLKGAERLTKSVTENQENKLQRDFNSELLRLRQHWKLRKVGDKILGDLSYRSAGSLFPHHGTFEVIKNTDLDLDKKIPEDYCPLDVQIPSDLEGSAYIKVSIQKQAPDIGDLGTVNLFKRPLPKSKPGSPHWQTKLEAAQNVLLCKEIFAQLSREAVQIKSQVPHIVVKNQIISQPFPSLQLSISLCHSSNDKKSQKFATEKQCPEDHLYVLEHNLHLLIREFHKQTLSSIMMPHPASAPFGHKRMRLSGPQAFDKNEINSLQSSEGLLEKIIKQAKHIFLRSRAAATIDSLASRIEDPQIQAHWSNINDVYESSVKVLITSQGYEQICKSIQLQLNIGVEQIRVVHRDGRVITLSYQEQELQDFLLSQMSQHQVHAVQQLAKVMGWQVLSFSNHVGLGPIESIGNASAITVASPSGDYAISVRNGPESGSKIMVQFPRNQCKDLPKSDVLQDNKWSHLRGPFKEVQWNKMEGRNFVYKMELLMSALSPCLL [MED17]	0.0203	0.644	0.0389	-0.0898	50.4	49.7
MNIRNARPEDLMNMQHCNLLCLPENYQMKYYFYHGLSWPQLSYIAEDENGKIVGYVLAKMEEDPDDVPHGHITSLAVKRSHRRLGLAQKLMDQASRAMIENFNAKYVSLHVRKSNRAALHLYSNTLNFQISEVEPKYYADGEDAYAMKRDLTQMADELRRHLELKEKGRHVVLGAIENKVESKGNSPPSSGEACREEKGLAAEDSGGDSKDLSEVSETTESTDVKDSSEASDSAS [NAA10]	-0.13	-1.02	0.263	-0.0427	53.4	53.1
MALVHKLLRGTYFLRKFSKPTSALYPFLGIRFAEYSSSLQKPVASPGKASSQRKTEGDLQGDHQKEVALDITSSEEKPDVSFDKAIRDEAIYHFRLLKDEIVDHWRGPEGHPLHEVLLEQAKVVWQFRGKEDLDKWTVTSDKTIGGRSEVFLKMGKNNQSALLYGTLSSEAPQDGESTRSGYCAMISRIPRGAFERKMSYDWSQFNTLYLRVRGDGRPWMVNIKEDTDFFQRTNQMYSYFMFTRGGPYWQEVKIPFSKFFFSNRGRIRDVQHELPLDKISSIGFTLADKVDGPFFLEIDFIGVFTDPAHTEEFAYENSPELNPRLFK [NDUFAF1]	4.31	3.52	0.043	-0.0281	54.6	55.2
MVRGRISRLSVRDVRFPTSLGGHGADAMHTDPDYSAAYVVIETDAEDGIKGCGITFTLGKGTEVVVCAVNALAHHVLNKDLKDIVGDFRGFYRQLTSDGQLRWIGPEKGVVHLATAAVLNAVWDLWAKQEGKPVWKLLVDMDPRMLVSCIDFRYITDVLTEEDALEILQKGQIGKKEREKQMLAQGYPAYTTSCAWLGYSDDTLKQLCAQALKDGWTRFKVKVGADLQDDMRRCQIIRDMIGPEKTLMMDANQRWDVPEAVEWMSKLAKFKPLWIEEPTSPDDILGHATISKALVPLGIGIATGEQCHNRVIFKQLLQAKALQFLQIDSCRLGSVNENLSVLLMAKKFEIPVCPHAGGVGLCELVQHLIIFDYISVSASLENRVCEYVDHLHEHFKYPVMIQRASYMPPKDPGYSTEMKEESVKKHQYPDGEVWKKLLPAQEN [ENOSF1]	-0.19	-1.12	0.0883	-0.108	54.7	55.1
MAAFSEMGVMPEIAQAVEEMDWLLPTDIQAESIPLILGGGDVLMAAETGSGKTGAFSIPVIQIVYETLKDQQEGKKGKTTIKTGASVLNKWQMNPYDRGSAFAIGSDGLCCQSREVKEWHGCRATKGLMKGKHYYEVSCHDQGLCRVGWSTMQASLDLGTDKFGFGFGGTGKKSHNKQFDNYGEEFTMHDTIGCYLDIDKGHVKFSKNGKDLGLAFEIPPHMKNQALFPACVLKNAELKFNFGEEEFKFPPKDGFVALSKAPDGYIVKSQHSGNAQVTQTKFLPNAPKALIVEPSRELAEQTLNNIKQFKKYIDNPKLRELLIIGGVAARDQLSVLENGVDIVVGTPGRLDDLVSTGKLNLSQVRFLVLDEADGLLSQGYSDFINRMHNQIPQVTSDGKRLQVIVCSATLHSFDVKKLSEKIMHFPTWVDLKGEDSVPDTVHHVVVPVNPKTDRLWERLGKSHIRTDDVHAKDNTRPGANSPEMWSEAIKILKGEYAVRAIKEHKMDQAIIFCRTKIDCDNLEQYFIQQGGGPDKKGHQFSCVCLHGDRKPHERKQNLERFKKGDVRFLICTDVAARGIDIHGVPYVINVTLPDEKQNYVHRIGRVGRAERMGLAISLVATEKEKVWYHVCSSRGKGCYNTRLKEDGGCTIWYNEMQLLSEIEEHLNCTISQVEPDIKVPVDEFDGKVTYGQKRAAGGGSYKGHVDILAPTVQELAALEKEAQTSFLHLGYLPNQLFRTF [DDX1]	0.00991	0.413	-0.286	0.00283	50.7	50.9
MAAAALRRFWSRRRAEAGDAVVAKPGVWARLGSWARALLRDYAEACRDASAEARARPGRAAVYVGLLGGAAACFTLAPSEGAFEEALLEASGTLLLLAPATRNRESEAFVQRLLWLRGRGRLRYVNLGLCSLVYEAPFDAQASLYQARCRYLQPRWTDFPGRVLDVGFVGRWWVLGAWMRDCDINDDEFLHLPAHLRVVGPQQLHSETNERLFDEKYKPVVLTDDQVDQALWEEQVLQKEKKDRLALSQAHSLVQAEAPR [C19ORF52]	0.683	0.243	-0.131	-0.13	53.5	53.8
SRRM2	-1.58	5.67	-0.81	0.682	48.3	50.2
MEDPTLYIVERPLPGYPDAEAPEPSSAGAQAAEEPSGAGSEELIKSDQVNGVLVLSLLDKIIGAVDQIQLTQAQLEERQAEMEGAVQSIQGELSKLGKAHATTSNTVSKLLEKVRKVSVNVKTVRGSLERQAGQIKKLEVNEAELLRRRNFKVMIYQDEVKLPAKLSISKSLKESEALPEKEGEELGEGERPEEDAAALELSSDEAVEVEEVIEESRAERIKRSGLRRVDDFKKAFSKEKMEKTKVRTRENLEKTRLKTKENLEKTRHTLEKRMNKLGTRLVPAERREKLKTSRDKLRKSFTPDHVVYARSKTAVYKVPPFTFHVKKIREGQVEVLKATEMVEVGADDDEGGAERGEAGDLRRGSSPDVHALLEITEESDAVLVDKSDSD [PTRF]	-3.64	-4.73	-0.215	0.094	54.4	52.4
